# Bridge positions count the residues as written; N and C are the ends. Square brackets hold non-standard residues; d marks the D form. dPhe(4-F) = N[C@H](Cc1ccc(F)cc1)C(=O)O; Pen = CC(C)(S)[C@H](N)C(=O)O; hCys = N[C@@H](CCS)C(=O)O
# B1: Ac-Arg-cyclo[Cys-D-Ala-Pro-D-Phe-Arg-Trp-Cys]-NH2 (peptide)
# peptide: Ac-RC[dA]P[dF]RWC-NH2
# modifications: disulfide 2-8
# SMILES: CC(=O)N[C@@H](CCCNC(=N)N)C(=O)N[C@H]1CSSC[C@@H](C(N)=O)NC(=O)[C@H](Cc2c[nH]c3ccccc23)NC(=O)[C@H](CCCNC(=N)N)NC(=O)[C@@H](Cc2ccccc2)NC(=O)[C@@H]2CCCN2C(=O)[C@@H](C)NC1=O
# B2: Ac-Arg-cyclo[Cys-D-Ala-Asn-D-Phe-Arg-Trp-Cys]-NH2 (peptide)
# peptide: Ac-RC[dA]N[dF]RWC-NH2
# modifications: disulfide 2-8
# SMILES: CC(=O)N[C@@H](CCCNC(=N)N)C(=O)N[C@H]1CSSC[C@@H](C(N)=O)NC(=O)[C@H](Cc2c[nH]c3ccccc23)NC(=O)[C@H](CCCNC(=N)N)NC(=O)[C@@H](Cc2ccccc2)NC(=O)[C@H](CC(N)=O)NC(=O)[C@@H](C)NC1=O
# B3: Ac-Arg-cyclo[Cys-D-Ala-Gln-D-Phe-Arg-Trp-Cys]-NH2 (peptide)
# peptide: Ac-RC[dA]Q[dF]RWC-NH2
# modifications: disulfide 2-8
# SMILES: CC(=O)N[C@@H](CCCNC(=N)N)C(=O)N[C@H]1CSSC[C@@H](C(N)=O)NC(=O)[C@H](Cc2c[nH]c3ccccc23)NC(=O)[C@H](CCCNC(=N)N)NC(=O)[C@@H](Cc2ccccc2)NC(=O)[C@H](CCC(N)=O)NC(=O)[C@@H](C)NC1=O
# B4: Ac-Arg-cyclo[hCys-D-Ala-D-Phe-Arg-Trp-Pen]-NH2 (peptide)
# peptide: Ac-R[hCys][dA][dF]RW[Pen]-NH2
# modifications: disulfide 2-7
# SMILES: CC(=O)N[C@@H](CCCNC(=N)N)C(=O)N[C@H]1CCSSC(C)(C)[C@@H](C(N)=O)NC(=O)[C@H](Cc2c[nH]c3ccccc23)NC(=O)[C@H](CCCNC(=N)N)NC(=O)[C@@H](Cc2ccccc2)NC(=O)[C@@H](C)NC1=O
# B5: Ac-Arg-cyclo[Cys-D-Ala-Trp-D-Phe-Arg-Trp-Cys]-NH2 (peptide)
# peptide: Ac-RC[dA]W[dF]RWC-NH2
# modifications: disulfide 2-8
# SMILES: CC(=O)N[C@@H](CCCNC(=N)N)C(=O)N[C@H]1CSSC[C@@H](C(N)=O)NC(=O)[C@H](Cc2c[nH]c3ccccc23)NC(=O)[C@H](CCCNC(=N)N)NC(=O)[C@@H](Cc2ccccc2)NC(=O)[C@H](Cc2c[nH]c3ccccc23)NC(=O)[C@@H](C)NC1=O
# B6: Ac-Arg-cyclo[Cys-D-Ala-Pro-D-Phe(p-F)-Arg-Trp-Cys]-NH2 (peptide)
# peptide: Ac-RC[dA]P[dPhe(4-F)]RWC-NH2
# modifications: disulfide 2-8
# SMILES: CC(=O)N[C@@H](CCCNC(=N)N)C(=O)N[C@H]1CSSC[C@@H](C(N)=O)NC(=O)[C@H](Cc2c[nH]c3ccccc23)NC(=O)[C@H](CCCNC(=N)N)NC(=O)[C@@H](Cc2ccc(F)cc2)NC(=O)[C@@H]2CCCN2C(=O)[C@@H](C)NC1=O
# B7: Ac-Glu-cyclo[Cys-Ala-His-D-Phe-Arg-Trp-Cys]-NH2 (peptide)
# peptide: Ac-ECAH[dF]RWC-NH2
# modifications: disulfide 2-8
# SMILES: CC(=O)N[C@@H](CCC(=O)O)C(=O)N[C@H]1CSSC[C@@H](C(N)=O)NC(=O)[C@H](Cc2c[nH]c3ccccc23)NC(=O)[C@H](CCCNC(=N)N)NC(=O)[C@@H](Cc2ccccc2)NC(=O)[C@H](Cc2c[nH]cn2)NC(=O)[C@H](C)NC1=O
# B8: Ac-Arg-cyclo[hCys-D-Ala-D-Phe-Arg-Trp-Cys]-NH2 (peptide)
# peptide: Ac-R[hCys][dA][dF]RWC-NH2
# modifications: disulfide 2-7
# SMILES: CC(=O)N[C@@H](CCCNC(=N)N)C(=O)N[C@H]1CCSSC[C@@H](C(N)=O)NC(=O)[C@H](Cc2c[nH]c3ccccc23)NC(=O)[C@H](CCCNC(=N)N)NC(=O)[C@@H](Cc2ccccc2)NC(=O)[C@@H](C)NC1=O
# B9: Ac-Arg-cyclo[hCys-Ala-D-Phe-Arg-Trp-Cys]-NH2 (peptide)
# peptide: Ac-R[hCys]A[dF]RWC-NH2
# modifications: disulfide 2-7
# SMILES: CC(=O)N[C@@H](CCCNC(=N)N)C(=O)N[C@H]1CCSSC[C@@H](C(N)=O)NC(=O)[C@H](Cc2c[nH]c3ccccc23)NC(=O)[C@H](CCCNC(=N)N)NC(=O)[C@@H](Cc2ccccc2)NC(=O)[C@H](C)NC1=O
# B10: Ac-Arg-cyclo[Cys-D-Ala-Arg-D-Phe-Arg-Trp-Cys]-NH2 (peptide)
# peptide: Ac-RC[dA]R[dF]RWC-NH2
# modifications: disulfide 2-8
# SMILES: CC(=O)N[C@@H](CCCNC(=N)N)C(=O)N[C@H]1CSSC[C@@H](C(N)=O)NC(=O)[C@H](Cc2c[nH]c3ccccc23)NC(=O)[C@H](CCCNC(=N)N)NC(=O)[C@@H](Cc2ccccc2)NC(=O)[C@H](CCCNC(=N)N)NC(=O)[C@@H](C)NC1=O
# B11: Ac-Arg-cyclo[Cys-D-Ala-Tyr-D-Phe-Arg-Trp-Cys]-NH2 (peptide)
# peptide: Ac-RC[dA]Y[dF]RWC-NH2
# modifications: disulfide 2-8
# SMILES: CC(=O)N[C@@H](CCCNC(=N)N)C(=O)N[C@H]1CSSC[C@@H](C(N)=O)NC(=O)[C@H](Cc2c[nH]c3ccccc23)NC(=O)[C@H](CCCNC(=N)N)NC(=O)[C@@H](Cc2ccccc2)NC(=O)[C@H](Cc2ccc(O)cc2)NC(=O)[C@@H](C)NC1=O
# Target: melanocortin-5 receptor (human, UniProt P33032 1-325)
# Sequence (P33032 whole entry): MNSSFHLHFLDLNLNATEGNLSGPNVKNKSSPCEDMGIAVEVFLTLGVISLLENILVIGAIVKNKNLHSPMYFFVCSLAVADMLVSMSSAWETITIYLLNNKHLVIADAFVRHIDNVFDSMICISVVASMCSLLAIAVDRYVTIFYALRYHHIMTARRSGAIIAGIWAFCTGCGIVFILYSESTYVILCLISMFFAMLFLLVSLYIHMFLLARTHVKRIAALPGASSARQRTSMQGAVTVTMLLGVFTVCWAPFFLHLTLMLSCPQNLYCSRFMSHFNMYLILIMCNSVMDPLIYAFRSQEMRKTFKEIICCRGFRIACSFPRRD
# Experiment: cell-based or functional assay
Binder,Ratios of EC50 values MC 5/4 (MC5R against MC4R) [ratio],cAMP Assay (EC-50) [nM]
B1,13,707
B2,530,1490
B3,155,255
B4,159,2180
B5,7,259
B6,12,283
Ac-RC[dL]H[dF]RWC-NH2 (disulfide 2-8) [Ac-Arg-cyclo[Cys-D-Leu-His-D-Phe-Arg-Trp-Cys]-NH2],130,91
B7,> 2560,1280
B8,> 1340,> 10000
Ac-RC[dV]H[dF]RWC-NH2 (disulfide 2-8) [Ac-Arg-cyclo[Cys-D-Val-His-D-Phe-Arg-Trp-Cys]-NH2],584,782
Ac-RC[dI]H[dF]RWC-NH2 (disulfide 2-8) [Ac-Arg-cyclo[Cys-D-Ile-His-D-Phe-Arg-Trp-Cys]-NH2],420,420
B9,161,42

# Target: melanocortin-1 receptor (human, UniProt Q01726 1-317)
# Sequence (Q01726 whole entry): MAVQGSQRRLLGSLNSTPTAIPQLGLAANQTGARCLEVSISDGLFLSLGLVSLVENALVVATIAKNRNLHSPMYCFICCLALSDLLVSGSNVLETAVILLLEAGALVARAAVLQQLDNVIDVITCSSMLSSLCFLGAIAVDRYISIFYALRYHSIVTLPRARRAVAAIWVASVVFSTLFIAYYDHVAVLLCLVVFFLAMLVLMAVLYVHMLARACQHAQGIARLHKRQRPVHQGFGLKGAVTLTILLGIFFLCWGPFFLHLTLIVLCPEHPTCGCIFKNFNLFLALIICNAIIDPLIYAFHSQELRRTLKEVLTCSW
# Experiment: cell-based or functional assay
Binder,Ratios of EC50 values MC 1/4 (MC1R against MC4R) [ratio],cAMP Assay (EC-50) [nM]
B1,5,280
B2,90,248
B3,40,71
B4,15,195
B5,8,273
B10,2.31,6.2
B6,7,169
Ac-RC[dL]H[dF]RWC-NH2 (disulfide 2-8) [Ac-Arg-cyclo[Cys-D-Leu-His-D-Phe-Arg-Trp-Cys]-NH2],0.68,0.47
B11,6.67,301
B7,> 3,1.7
B8,120,888
Ac-RC[dV]H[dF]RWC-NH2 (disulfide 2-8) [Ac-Arg-cyclo[Cys-D-Val-His-D-Phe-Arg-Trp-Cys]-NH2],0.93,1.25
Ac-RC[dI]H[dF]RWC-NH2 (disulfide 2-8) [Ac-Arg-cyclo[Cys-D-Ile-His-D-Phe-Arg-Trp-Cys]-NH2],0.69,0.69
B9,15,4

# Target: melanocortin-3 receptor (human, UniProt P41968 1-323)
# Sequence (P41968 whole entry): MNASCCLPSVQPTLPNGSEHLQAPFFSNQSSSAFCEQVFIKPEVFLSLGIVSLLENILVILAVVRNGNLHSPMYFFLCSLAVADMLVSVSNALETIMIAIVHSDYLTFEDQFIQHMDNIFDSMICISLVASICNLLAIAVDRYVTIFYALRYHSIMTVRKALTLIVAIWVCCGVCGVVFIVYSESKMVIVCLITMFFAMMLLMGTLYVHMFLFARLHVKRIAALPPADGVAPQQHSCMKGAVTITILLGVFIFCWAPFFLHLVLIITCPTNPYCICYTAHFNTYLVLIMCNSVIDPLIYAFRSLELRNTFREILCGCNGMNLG
# Experiment: cell-based or functional assay
Binder,Ratios of EC50 values MC 3/4 (MC3R against MC4R) [ratio],cAMP Assay (EC-50) [nM]
B1,> 200,> 10000
B2,30,81
B3,5,8.6
B4,17,233
B5,> 290,> 10000
B10,1.45,3.9
B6,> 400,> 10000
Ac-RC[dL]H[dF]RWC-NH2 (disulfide 2-8) [Ac-Arg-cyclo[Cys-D-Leu-His-D-Phe-Arg-Trp-Cys]-NH2],1.13,0.79
B11,> 22.2,> 1000
B7,> 20,9.9
B8,420,3160
Ac-RC[dV]H[dF]RWC-NH2 (disulfide 2-8) [Ac-Arg-cyclo[Cys-D-Val-His-D-Phe-Arg-Trp-Cys]-NH2],1.19,1.59
Ac-RC[dI]H[dF]RWC-NH2 (disulfide 2-8) [Ac-Arg-cyclo[Cys-D-Ile-His-D-Phe-Arg-Trp-Cys]-NH2],0.96,0.96
B9,3.8,1

# Target: melanocortin-4 receptor (human, UniProt P32245 1-332)
# Sequence (P32245 whole entry): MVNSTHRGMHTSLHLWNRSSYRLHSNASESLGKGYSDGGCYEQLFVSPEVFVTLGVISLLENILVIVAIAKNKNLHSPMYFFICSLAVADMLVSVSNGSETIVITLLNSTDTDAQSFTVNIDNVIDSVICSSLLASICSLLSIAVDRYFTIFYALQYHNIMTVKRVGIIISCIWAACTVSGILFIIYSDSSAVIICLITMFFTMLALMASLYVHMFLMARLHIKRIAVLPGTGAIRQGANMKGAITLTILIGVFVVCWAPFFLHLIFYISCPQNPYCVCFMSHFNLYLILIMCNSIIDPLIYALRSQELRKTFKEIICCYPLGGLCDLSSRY
# Experiment: cell-based or functional assay
row,Binder,cAMP Assay (EC-50) [nM]
1,B1,56
2,B2,3
3,B3,1.6
4,B4,13.7
5,B5,34
6,B10,2.7
7,B6,24
8,Ac-RC[dL]H[dF]RWC-NH2 (disulfide 2-8) [Ac-Arg-cyclo[Cys-D-Leu-His-D-Phe-Arg-Trp-Cys]-NH2],0.7
9,B11,45.1
10,B7,< 0.5
11,B8,7.5
12,Ac-RC[dV]H[dF]RWC-NH2 (disulfide 2-8) [Ac-Arg-cyclo[Cys-D-Val-His-D-Phe-Arg-Trp-Cys]-NH2],1.34
13,Ac-RC[dI]H[dF]RWC-NH2 (disulfide 2-8) [Ac-Arg-cyclo[Cys-D-Ile-His-D-Phe-Arg-Trp-Cys]-NH2],1
14,B9,0.26

# Source: patent US20210040155A1 (RHYTHM PHARMACEUTICALS, published 2021)
